B1: PTPRJ (protein, UniProt Q12913 36-1337, looked up)
Receptor-type …: AGGTPSPIPDPSVATVATGENGITQISSTAESFHKQNGTGTPQVETNTSEDGESSGANDSLRTPEQGSNGTDGASQKTPSSTGPSPVFDIKAVSISPTNVILTWKSNDTAASEYKYVVKHKMENEKTITVVHQPWCNITGLRPATSYVFSITPGIGNETWGDPRVIKVITEPIPVSDLRVALTGVRKAALSWSNGNGTASCRVLLESIGSHEELTQDSRLQVNISGLKPGVQYNINPYLLQSNKTKGDPLGTEGGLDASNTERSRAGSPTAPVHDESLVGPVDPSSGQQSRDTEVLLVGLEPGTRYNATVYSQAANGTEGQPQAIEFRTNAIQVFDVTAVNISATSLTLIWKVSDNESSSNYTYKIHVAGETDSSNLNVSEPRAVIPGLRSSTFYNITVCPVLGDIEGTPGFLQVHTPPVPVSDFRVTVVSTTEIGLAWSSHDAESFQMHITQEGAGNSRVEITTNQSIIIGGLFPGTKYCFEIVPKGPNGTEGASRTVCNRTVPSAVFDIHVVYVTTTEMWLDWKSPDGASEYVYHLVIESKHGSNHTSTYDKAITLQGLIPGTLYNITISPEVDHVWGDPNSTAQYTRPSNVSNIDVSTNTTAATLSWQNFDDASPTYSYCLLIEKAGNSSNATQVVTDIGITDATVTELIPGSSYTVEIFAQVGDGIKSLEPGRKSFCTDPASMASFDCEVVPKEPALVLKWTCPPGANAGFELEVSSGAWNNATHLESCSSENGTEYRTEVTYLNFSTSYNISITTVSCGKMAAPTRNTCTTGITDPPPPDGSPNITSVSHNSVKVKFSGFEASHGPIKAYAVILTTGEAGHPSADVLKYTYEDFKKGASDTYVTYLIRTEEKGRSQSLSEVLKYEIDVGNESTTLGYYNGKLEPLGSYRACVAGFTNITFHPQNKGLIDGAESYVSFSRYSDAVSLPQDPGVICGAVFGCIFGALVIVTVGGFIFWRKKRKDAKNNEVSFSQIKPKKSKLIRVENFEAYFKKQQADSNCGFAEEYEDLKLVGISQPKYAAELAENRGKNRYNNVLPYDISRVKLSVQTHSTDDYINANYMPGYHSKKDFIATQGPLPNTLKDFWRMVWEKNVYAIIMLTKCVEQGRTKCEEYWPSKQAQDYGDITVAMTSEIVLPEWTIRDFTVKNIQTSESHPLRQFHFTSWPDHGVPDTTDLLINFRYLVRDYMKQSPPESPILVHCSAGVGRTGTFIAIDRLIYQIENENTVDVYGIVYDLRMHRPLMVQTEDQYVFLNQCVLDIVRSQKDSKVDLIYQNTTAMTIYENLAPVTTFGKTNGYIA
B2: SIRPB1 (protein, UniProt O00241 30-398, looked up)
Signal-regulatory protein …: EDELQVIQPEKSVSVAAGESATLRCAMTSLIPVGPIMWFRGAGAGRELIYNQKEGHFPRVTTVSELTKRNNLDFSISISNITPADAGTYYCVKFRKGSPDDVEFKSGAGTELSVRAKPSAPVVSGPAVRATPEHTVSFTCESHGFSPRDITLKWFKNGNELSDFQTNVDPAGDSVSYSIHSTARVVLTRGDVHSQVICEIAHITLQGDPLRGTANLSEAIRVPPTLEVTQQPMRAENQANVTCQVSNFYPRGLQLTWLENGNVSRTETASTLIENKDGTYNWMSWLLVNTCAHRDDVVLTCQVEHDGQQAVSKSYALEISAHQKEHGSDITHEAALAPTAPLLVALLLGPKLLLVVGVSAIYICWKQKA
B3: NFKBIE (protein, UniProt O00221 1-500, looked up)
NF-kappa-B inhibitor epsilon: MNQRRSESRPGNHRLQAYAEPGKGDSGGAGPLSGSARRGRGGGGAIRVRRPCWSGGAGRGGGPAWAVRLPTVTAGWTWPALRTLSSLRAGPSEPHSPGRRPPRAGRPLCQADPQPGKAARRSLEPDPAQTGPRPARAAGMSEARKGPDEAEESQYDSGIESLRSLRSLPESTSAPASGPSDGSPQPCTHPPGPVKEPQEKEDADGERADSTYGSSSLTYTLSLLGGPEAEDPAPRLPLPHVGALSPQQLEALTYISEDGDTLVHLAVIHEAPAVLLCCLALLPQEVLDIQNNLYQTALHLAVHLDQPGAVRALVLKGASRALQDRHGDTALHVACQRQHLACARCLLEGRPEPGRGTSHSLDLQLQNWQGLACLHIATLQKNQPLMELLLRNGADIDVQEGTSGKTALHLAVETQERGLVQFLLQAGAQVDARMLNGCTPLHLAAGRGLMGISSTLCKAGADSLLRNVEDETPQDLTEESLVLLPFDDLKISGKLLLCTD
B4: CST5 (protein, UniProt P28325 21-142, looked up)
Cystatin-D: GSASAQSRTLAGGIHATDLNDKSVQCALDFAISEYNKVINKDEYYSRPLQVMAAYQQIVGGVNYYFNVKFGRTTCTKSQPNLDNCPFNDQPKLKEEEFCSFQINEVPWEDKISILNYKCRKV
B5: CX3CL1 (protein, UniProt P78423 25-397, looked up)
Fractalkine: QHHGVTKCNITCSKMTSKIPVALLIHYQQNQASCGKRAIILETRQHRLFCADPKEQWVKDAMQHLDRQAAALTRNGGTFEKQIGEVKPRTTPAAGGMDESVVLEPEATGESSSLEPTPSSQEAQRALGTSPELPTGVTGSSGTRLPPTPKAQDGGPVGTELFRVPPVSTAATWQSSAPHQPGPSLWAEAKTSEAPSTQDPSTQASTASSPAPEENAPSEGQRVWGQGQSPRPENSLEREEMGPVPAHTDAFQDWGPGSMAHVSVVPVSSEGTPSREPVASGSWTPKAEEPIHATMDPQRLGVLITPVPDAQAATRRQAVGLLAFLGLLFCLGVAMFTYQSLQGCPRKMAGEMAEGLRYIPRSCGSNSYVLVPV
B6: hOSCAR (protein, UniProt Q8IYS5 19-282, looked up)
Osteoclast-associated …: DITPSVPPASYHPKPWLGAQPATVVTPGVNVTLRCRAPQPAWRFGLFKPGEIAPLLFRDVSSELAEFFLEEVTPAQGGIYRCCYRRPDWGPGVWSQPSDVLELLVTEELPRPSLVALPGPVVGPGANVSLRCAGRLRNMSFVLYREGVAAPLQYRHSAQPWADFTLLGARAPGTYSCYYHTPSAPYVLSQRSEVLVISWEGEGPEARPASSAPGMQAPGPPPSDPGAQAPSLSSFRPRGLVLQPLLPQTQDSWDPAPPPSDPGV
B7: SIRT2 (protein, UniProt Q8IXJ6 2-389, looked up)
NAD-dependent protein …: AEPDPSHPLETQAGKVQEAQDSDSDSEGGAAGGEADMDFLRNLFSQTLSLGSQKERLLDELTLEGVARYMQSERCRRVICLVGAGISTSAGIPDFRSPSTGLYDNLEKYHLPYPEAIFEISYFKKHPEPFFALAKELYPGQFKPTICHYFMRLLKDKGLLLRCYTQNIDTLERIAGLEQEDLVEAHGTFYTSHCVSASCRHEYPLSWMKEKIFSEVTPKCEDCQSLVKPDIVFFGESLPARFFSCMQSDFLKVDLLLVMGTSLQVQPFASLISKAPLSTPRLLINKEKAGQSDPFLGMIMGLGGGMDFDSKKAYRDVAWLGECDQGCLALAELLGWKKELEDLVRREHASIDAQSGAGVPNPSTSASPKKSPPPAKDEARTTEREKPQ
B8: ST3GAL1 (protein, UniProt Q11201 1-340, looked up)
CMP-N-acetylneuraminate-beta-g …: MVTLRKRTLKVLTFLVLFIFLTSFFLNYSHTMVATTWFPKQMVLELSENLKRLIKHRPCTCTHCIGQRKLSAWFDERFNQTMQPLLTAQNALLEDDTYRWWLRLQREKKPNNLNDTIKELFRVVPGNVDPMLEKRSVGCRRCAVVGNSGNLRESSYGPEIDSHDFVLRMNKAPTAGFEADVGTKTTHHLVYPESFRELGDNVSMILVPFKTIDLEWVVSAITTGTISHTYIPVPAKIRVKQDKILIYHPAFIKYVFDNWLQGHGRYPSTGILSVIFSMHVCDEVDLYGFGADSKGNWHHYWENNPSAGAFRKTGVHDADFESNVTATLASINKIRIFKGR
B9: HO-1 (protein, UniProt P09601 1-288, looked up)
Heme oxygenase 1: MERPQPDSMPQDLSEALKEATKEVHTQAENAEFMRNFQKGQVTRDGFKLVMASLYHIYVALEEEIERNKESPVFAPVYFPEELHRKAALEQDLAFWYGPRWQEVIPYTPAMQRYVKRLHEVGRTEPELLVAHAYTRYLGDLSGGQVLKKIAQKALDLPSSGEGLAFFTFPNIASATKFKQLYRSRMNSLEMTPAVRQRVIEEAKTAFLLNIQLFEELQELLTHDTKDQSPSRAPGLRQRASNKVQDSAPVETPRGKPPLNTRSQAPLLRWVLTLSFLVATVAVGLYAM
B10: LAT (protein, UniProt O43561 1-262, looked up)
Linker for activation of …: MEEAILVPCVLGLLLLPILAMLMALCVHCHRLPGSYDSTSSDSLYPRGIQFKRPHTVAPWPPAYPPVTSYPPLSQPDLLPIPRSPQPLGGSHRTPSSRRDSDGANSVASYENEGASGIRGAQAGWGVWGPSWTRLTPVSLPPEPACEDADEDEDDYHNPGYLVVLPDSTPATSTAAPSAPALSTPGIRDSAFSMESIDDYVNVPESGESAEASLDGSREYVNVSQELHPGAAKTEPAALSSQEAEEVEEEGAPDYENLQELN
B11: CES2 (protein, UniProt O00748 27-559, looked up)
Cocaine esterase: QDSASPIRTTHTGQVLGSLVHVKGANAGVQTFLGIPFAKPPLGPLRFAPPEPPESWSGVRDGTTHPAMCLQDLTAVESEFLSQFNMTFPSDSMSEDCLYLSIYTPAHSHEGSNLPVMVWIHGGALVFGMASLYDGSMLAALENVVVVIIQYRLGVLGFFSTGDKHATGNWGYLDQVAALRWVQQNIAHFGGNPDRVTIFGESAGGTSVSSLVVSPISQGLFHGAIMESGVALLPGLIASSADVISTVVANLSACDQVDSEALVGCLRGKSKEEILAINKPFKMIPGVVDGVFLPRHPQELLASADFQPVPSIVGVNNNEFGWLIPKVMRIYDTQKEMDREASQAALQKMLTLLMLPPTFGDLLREEYIGDNGDPQTLQAQFQEMMADSMFVIPALQVAHFQCSRAPVYFYEFQHQPSWLKNIRPPHMKADHGDELPFVFRSFFGGNYIKFTEEEEQLSRKMMKYWANFARNGNPNGEGLPHWPLFDQEEQYLQLNLQPAVGRALKAHRLQFWKKALPQKIQELEEPEERHTEL
B12: CNDP1 (protein, UniProt Q96KN2 27-507, looked up)
Beta-Ala-His dipeptidase: SPSPPPALLEKVFQYIDLHQDEFVQTLKEWVAIESDSVQPVPRFRQELFRMMAVAADTLQRLGARVASVDMGPQQLPDGQSLPIPPVILAELGSDPTKGTVCFYGHLDVQPADRGDGWLTDPYVLTEVDGKLYGRGATDNKGPVLAWINAVSAFRALEQDLPVNIKFIIEGMEEAGSVALEELVEKEKDRFFSGVDYIVISDNLWISQRKPAITYGTRGNSYFMVEVKCRDQDFHSGTFGGILHEPMADLVALLGSLVDSSGHILVPGIYDEVVPLTEEEINTYKAIHLDLEEYRNSSRVEKFLFDTKEEILMHLWRYPSLSIHGIEGAFDEPGTKTVIPGRVIGKFSIRLVPHMNVSAVEKQVTRHLEDVFSKRNSSNKMVVSMTLGLHPWIANIDDTQYLAAKRAIRTVFGTEPDMIRDGSTIPIAKMFQEIVHKSVVLIPLGAVDDGEHSQNEKINRWNYIEGTKLFAAFFLEMAQLH

Consider twelve molecules from US12099068B2, “Biomarkers for graft-versus-host disease” (Incyte Corporation, priority 2018, dated 2024).

For this assay, the system named is plasma proteins. Put plainly: Plasma proteins modulated between baseline and day 28 in responders (CR, VGPR, PR; n = 19), Example 6 (Table 13). The assay is classed as in vivo, human. The conditions noted are these: plasma protein (OLINK NPX); responders (CR, VGPR, PR; n = 19); itacitinib 200 mg or 300 mg QD with corticosteroids; day 28 vs baseline. The method in brief:
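Plasma at baseline/screening and day 28 profiled for >1000 proteins by OLINK proximity extension assay, reported as NPX (log2). Steroid-naive and steroid-refractory patients pooled. Paired and unpaired t tests, ANOVA and Pearson correlation applied; significance at P<0.05.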
In the case of B1, the “Fold Change, Decreased Expression from Baseline to Day 28” value (shortened to “Fold Change, Decreased Expression”) is reported as −1.7421.

For B2, the “Fold Change, Decreased Expression” value is recorded as −1.3991.

In the case of B3, the “Fold Change, Decreased Expression” value is −1.2885.

For B4, the “Fold Change, Increased Expression from Baseline to Day 28” value (“Fold Change, Increased Expression” below) is recorded as 1.3521.

For the molecule B5, the “Fold Change, Increased Expression” value came out at 1.5454.

With B6, the “Fold Change, Decreased Expression” value was −1.2603.

Consider B7, for which the “Fold Change, Decreased Expression” value is −1.6014.

Regarding B8, the “Fold Change, Increased Expression” value is recorded as 1.3415.

Consider B9, for which the “Fold Change, Increased Expression” value is on record as 1.3293.

As for B10, the “Fold Change, Decreased Expression” value is −2.049.

With B11, the “Fold Change, Increased Expression” value is on record as 1.4212.

Regarding B12, the “Fold Change, Increased Expression” value is reported as 1.3856.
